Test results: patent US20020182656

Biological target: T1, Purified, recombinant sGNK
T1 chain: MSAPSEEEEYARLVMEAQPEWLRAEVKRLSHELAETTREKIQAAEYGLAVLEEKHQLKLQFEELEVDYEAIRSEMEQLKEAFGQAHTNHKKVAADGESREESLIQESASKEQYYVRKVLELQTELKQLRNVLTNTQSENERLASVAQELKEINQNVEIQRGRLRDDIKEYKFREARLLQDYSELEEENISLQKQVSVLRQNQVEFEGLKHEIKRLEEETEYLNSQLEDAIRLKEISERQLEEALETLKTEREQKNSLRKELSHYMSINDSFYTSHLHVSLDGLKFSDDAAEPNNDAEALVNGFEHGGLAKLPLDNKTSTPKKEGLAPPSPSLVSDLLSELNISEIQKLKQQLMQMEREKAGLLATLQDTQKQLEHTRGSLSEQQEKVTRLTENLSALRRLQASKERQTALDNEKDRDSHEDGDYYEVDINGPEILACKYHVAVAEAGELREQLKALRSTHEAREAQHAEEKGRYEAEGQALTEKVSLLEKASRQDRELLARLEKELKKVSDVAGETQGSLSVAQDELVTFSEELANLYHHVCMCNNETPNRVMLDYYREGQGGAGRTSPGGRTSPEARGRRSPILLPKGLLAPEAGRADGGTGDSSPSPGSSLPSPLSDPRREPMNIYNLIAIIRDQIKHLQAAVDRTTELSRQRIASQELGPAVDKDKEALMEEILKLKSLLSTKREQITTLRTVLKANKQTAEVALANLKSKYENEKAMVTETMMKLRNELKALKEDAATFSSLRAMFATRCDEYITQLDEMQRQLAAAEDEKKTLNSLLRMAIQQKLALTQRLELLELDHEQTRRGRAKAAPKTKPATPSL

B1: Human recombinant GNK (hu-rGNK) (protein)
chain: MSVLGEYERHCDSINSDFGSESGGCGDSSPGPSASQGPRAGGGAAEQEELHYIPIRVLGRGAFGEATLYRRTEDDSLVVWKEVDLTRLSEKERRDALNEIVILALLQHDNIIAYYNHFMDNTTLLIELEYCNGGNLYDKILRQKDKLFEEEMVVWYLFQIVSAVSCIHKAGILHRDIKTLNIFLTKANLIKLGDYGLAKKLNSEYSMAETLVGTPYYMSPELCQGVKYNFKSDIWAVGCVIFELLTLKRTFDATNPLNLCVKIVQGIRAMEVDSSQYSLELIQMVHSCLDQDPEQRPTADELLDRPLLRKRRREMEEKVTLLNAPTKRPRSSTVTEAPIAVVTSRTSEVYVWGGGKSTPQKLDVIKSGCSARQVCAGNTHFAVVTVEKELYTWVNMQGGTKLHGQLGHGDKASYRQPKHVEKLQGKAIHQVSCGDDFTVCVTDEGQLYAFGSDYYGCMGVDKVAGPEVLEPMQLNFFLSNPVEQVSCGDNHVVVLTRNKEVYSWGCGEYGRLGLDSEEDYYTPQKVDVPKALIIVAVQCGCDGTFLLTQSGKVLACGLNEFNKLGLNQCMSGIINHEAYHEVPYTTSFTLAKQLSFYKIRTIAPGKTHTAAIDERGRLLTFGCNKCGQLGVGNYKKRLGINLLGGPLGGKQVIRVSCGDEFTIAATDDNHIFAWGNGGNGRLAMTPTERPHGSDICTSWPRPIFGSLHHVPDLSCRGWHTILIVEKVLNSKTIRSNSSGLSIGTVFQSSSPGGGGGGGGGEEEDSQQESETPDPSGGFRGTMEADRGMEGLISPTEAMGNSNGASSSCPGWLRKELENAEFIPMPDSPSPLSAAFSESEKDTLPYEELQGLKVASEAPLEHKPQVEASSPRLNPAVTCAGKGTPLTPPACACSSLQVEVERLQGLVLKCLAEQQKLQQENLQIFTQLQKLNKKLEGGQQVGMHSKGTQTAKEEMEMDPKPDLDSDSWCLLGTDSCRPSL
  phosphorylation of sGNK by GNK (kinase assay with gamma-32P-ATP, SDS-PAGE, Phosphoimager): GNK-mediated phosphorylation of sGNK was demonstrated using the kinase assay described above, except purified, recombinant sGNK was added to the kinase reaction mixture
